Reference: IntAct's records for PubMed 23455607

Experiments:
lamp2_rat Lamp2 = lamp2_rat Lamp2 (UniProt P17046)
lamp2_human LAMP2 [1] = target: lamp2_human LAMP2 (UniProt P13473)
lamp2_human LAMP2 [2] = target: lamp2_human LAMP2 (UniProt P13473); remark: listed apart in the source

Sequence of lamp2_rat Lamp2 (P17046 whole entry): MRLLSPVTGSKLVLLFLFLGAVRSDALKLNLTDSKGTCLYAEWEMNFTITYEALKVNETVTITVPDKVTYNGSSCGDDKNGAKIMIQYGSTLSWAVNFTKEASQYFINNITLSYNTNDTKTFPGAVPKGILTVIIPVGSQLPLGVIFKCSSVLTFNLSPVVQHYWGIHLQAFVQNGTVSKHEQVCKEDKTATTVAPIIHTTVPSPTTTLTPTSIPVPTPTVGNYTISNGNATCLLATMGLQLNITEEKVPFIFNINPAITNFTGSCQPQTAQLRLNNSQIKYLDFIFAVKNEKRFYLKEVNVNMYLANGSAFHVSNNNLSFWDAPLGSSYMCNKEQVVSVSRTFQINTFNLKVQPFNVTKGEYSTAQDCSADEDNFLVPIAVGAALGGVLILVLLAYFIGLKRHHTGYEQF
Sequence of lamp2_human LAMP2 (P13473 whole entry): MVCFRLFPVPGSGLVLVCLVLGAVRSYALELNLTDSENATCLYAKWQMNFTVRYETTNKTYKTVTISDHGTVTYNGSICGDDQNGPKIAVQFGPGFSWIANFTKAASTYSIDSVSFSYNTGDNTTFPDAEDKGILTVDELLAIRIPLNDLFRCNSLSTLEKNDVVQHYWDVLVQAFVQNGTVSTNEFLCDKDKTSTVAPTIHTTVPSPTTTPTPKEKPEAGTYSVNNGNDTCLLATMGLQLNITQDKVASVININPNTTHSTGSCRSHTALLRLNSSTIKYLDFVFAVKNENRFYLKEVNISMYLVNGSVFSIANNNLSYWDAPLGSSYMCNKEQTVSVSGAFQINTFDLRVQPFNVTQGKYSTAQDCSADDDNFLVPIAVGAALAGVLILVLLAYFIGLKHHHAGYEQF

| Substance | effect of a mutation on the interaction (lamp2_rat Lamp2) | effect of a mutation on the interaction (lamp2_human LAMP2 [1]) | effect of a mutation on the interaction (lamp2_human LAMP2 [2]) |
| --- | --- | --- | --- |
| Leucine-rich repeat serine/threonine-protein kinase 2 (Homo sapiens), Q5S007 G2019S | increasing interaction | increasing interaction |  |
| Leucine-rich repeat serine/threonine-protein kinase 2 (Homo sapiens), Q5S007 R1441C | increasing interaction |  | increasing interaction |
